± gives the uncertainty stated by the source.
Assay: protein stability index of a GFP-peptide fusion (yeast GPS) (PSI 1-4); higher = more stable; sorted into four equal gates, so the index is relative within each strain
How it was run: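 Yeast carrying a pooled library were grown to mid-log phase in leucine-free medium. Each library plasmid expresses Cherry and has a tiled 17-residue yeast protein peptide fused downstream of GFP. Cells were sorted into four equal gates by GFP/Cherry ratio, and plasmids from each gate were PCR-amplified, Illumina-sequenced and assigned to strains by barcode. Summing, across gates, the read frequency times the gate number gave each peptide's protein stability index.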

| Sequence | protein stability index (doa10∆) | protein stability index (pdr5∆) | protein stability index (san1∆) | protein stability index (ubr1∆) |
| --- | --- | --- | --- | --- |
| IAHNISAKNRVVILARA [RPL32] | 1.66 ± 0.043 | 1.71 ± 0.058 | 1.76 ± 0.085 | 1.52 ± 0.043 |
| ESYKPSVQLPDMAKLKK [SWI3] | 2.94 ± 0.081 | 2.9 ± 0.081 | 2.81 ± 0.06 | 2.79 ± 0.068 |
| IMKNKDFILSLLHHVSE [YJL039C/NUP192] | 2.41 ± 0.12 | 2.35 ± 0.099 | 1.92 ± 0.11 | 2.52 ± 0.065 |
| RGVDAGKGNTFEKVGSH [RPN14] | 2.71 ± 0.24 | 2.98 ± 0.17 | 3.67 ± 0.11 | 3.33 ± 0.12 |
| SKSLQESGDTQEEDEEE [RPC82] | 3.5 ± 0.19 | 3.48 ± 0.15 | 3.29 ± 0.08 | 3.48 ± 0.12 |
| RAFTKKVSSASAAASES [RPL16B] | 2.42 ± 0.065 | 2.19 ± 0.052 | 2.16 ± 0.065 | 1.85 ± 0.054 |
| ELVDMAGAGEANGTVVS [MTR3] | 2.98 ± 0.12 | 3.11 ± 0.14 | – | 3.05 ± 0.087 |
| EIPEGVTVSIKSRIVKV [RPL9B] | 1.29 ± 0.055 | 1.45 ± 0.075 | 1.44 ± 0.27 | 1.35 ± 0.11 |
| RQQQENSSKIITLDLSN [SMC1] | 3.22 ± 0.11 | 3.35 ± 0.066 | 3.18 ± 0.066 | 3.18 ± 0.061 |
| TGHSQGLVTAVAIAETD [FAS1] | 3.25 ± 0.14 | 3.44 ± 0.078 | 3.29 ± 0.098 | 3.25 ± 0.095 |
| IFTCQIMNLITNEPCGA [RPN4] | 2.07 ± 0.087 | 2.61 ± 0.18 | 2.36 ± 0.21 | – |
| DFYTRHHFTCEITGTSC [ITC1] | 1.43 ± 0.042 | 1.64 ± 0.045 | 1.51 ± 0.094 | 1.65 ± 0.045 |
| NYPQDEINAVFNELCDP [POP1] | 2.84 ± 0.059 | 3.04 ± 0.051 | 2.9 ± 0.057 | 3.07 ± 0.056 |
| PTHYKIPAWFLNRQNDI [RPS18A] | 2.12 ± 0.065 | 2.19 ± 0.062 | 1.8 ± 0.071 | 1.75 ± 0.046 |
| VLYYRDARSSRNFSLAI [PRE4] | 2.85 ± 0.14 | 2.63 ± 0.12 | 1.99 ± 0.15 | 2.39 ± 0.085 |
| MGRVRTKTVKRASKALI [RPS17A] | 3.05 ± 0.12 | 1.87 ± 0.086 | 3.1 ± 0.069 | 1.52 ± 0.06 |
| TLSLPDSQDYILSINAI [SMC1] | 2.85 ± 0.041 | 2.95 ± 0.05 | 2.9 ± 0.04 | 2.87 ± 0.044 |
| RAHGRINKYESSPSHIE [RPL17A] | 2.9 ± 0.07 | 3.4 ± 0.077 | 2.99 ± 0.08 | 3.17 ± 0.061 |
| EKQIEELLDNCIETFVA [SRB6] | 2.62 ± 0.13 | – | 3.19 ± 0.16 | 3.32 ± 0.12 |
| ITLALADAGIELVDMAG [MTR3] | 1.89 ± 0.072 | 2.43 ± 0.065 | 2.2 ± 0.1 | 2.12 ± 0.075 |
| FITFSLDDWISIGYETE [IRR1] | 2.56 ± 0.078 | 2.61 ± 0.088 | 2.65 ± 0.084 | 2.6 ± 0.071 |
| KVFDCGDNIVMSANGFA [PRE7] | 2.88 ± 0.24 | 2.92 ± 0.12 | 2.88 ± 0.11 | 2.97 ± 0.15 |
| EFESELKNVEETQEIKE [ESC2] | 3.54 ± 0.25 | 3.46 ± 0.2 | 3.25 ± 0.18 | 3.29 ± 0.15 |
| VVSAVGEARNDIENKEE [YAR002W/NUP60] | 2.92 ± 0.056 | 3.17 ± 0.066 | 3.08 ± 0.041 | 2.9 ± 0.076 |
| FDPFQAVSRSMTDIWNT [ECM29] | 2.81 ± 0.087 | 2.73 ± 0.07 | 2.85 ± 0.062 | 2.75 ± 0.071 |
| NKVSYYGNPTSKESWRY [RTT102] | 3.23 ± 0.11 | 3.19 ± 0.13 | 2.84 ± 0.17 | 3.42 ± 0.098 |
| SLTEKFSQTVADNNDLQ [ECM29] | 2.48 ± 0.049 | 2.71 ± 0.056 | 2.64 ± 0.068 | 2.35 ± 0.048 |

| Sequence | protein stability index (doa10∆) | protein stability index (pdr5∆) | protein stability index (san1∆) | protein stability index (ubr1∆) |
| --- | --- | --- | --- | --- |
| SLQQMQHLQQLKMQQQQ [GAL11] | 2.05 ± 0.096 | 2.09 ± 0.06 | 2.36 ± 0.099 | 1.41 ± 0.08 |
| NSLSSNLSSLIVEINNV [YJL041W/NSP1] | 2.26 ± 0.037 | 2.58 ± 0.045 | 2.35 ± 0.051 | 2.41 ± 0.033 |
| QQKQQQQQQQHQQQQQQ [SNF5] | 2.73 ± 0.033 | 2.8 ± 0.03 | 2.81 ± 0.029 | 2.769 ± 0.026 |
| PRGTAKLIIHRKNDNAN [SMC3] | 1.68 ± 0.29 | 2.34 ± 0.18 | – | 1.95 ± 0.087 |
| VVVVGTVTDDARIFEFP [RPL18A] | 2.75 ± 0.14 | 2.9 ± 0.097 | 2.6 ± 0.15 | 2.79 ± 0.092 |
| LEHDVEYRPFSKKVLEC [DIS3] | 3.4 ± 0.18 | 3.6 ± 0.1 | 3.48 ± 0.07 | 3.37 ± 0.073 |
| LEKKGFSEVYEYNRLKV [LIN1] | 3.34 ± 0.16 | 3.18 ± 0.25 | 3.28 ± 0.1 | 3.22 ± 0.12 |
| LTIVTCKQFPKLSCIQL [SRB8] | 1.99 ± 0.07 | 1.86 ± 0.058 | 1.46 ± 0.05 | 1.6 ± 0.03 |
| TIRQIILPDSLNLDSLL [SMD1] | 3.03 ± 0.076 | 2.67 ± 0.065 | 3.11 ± 0.055 | 2.7 ± 0.046 |
| SLRRQVKKLEIQQHARY [RPL43A] | 2.75 ± 0.11 | 2.89 ± 0.1 | 2.96 ± 0.077 | 3.29 ± 0.09 |
| GHIPWHILAVKKMMNTL [SSN2] | 2.45 ± 0.065 | 2.85 ± 0.098 | 2.74 ± 0.1 | 1.1 ± 0.16 |
| KKKVYTTPKKIKHKHKK [RPS31] | 3.38 ± 0.16 | 2.86 ± 0.2 | – | – |
| RPLPQWIRLRTNNTIRY [RPL39] | 1.85 ± 0.056 | 1.81 ± 0.054 | 1.5 ± 0.067 | 1.62 ± 0.052 |
| IEHNLRVISEYYSRITL [RPN5] | 2.63 ± 0.087 | 2.54 ± 0.078 | 2.41 ± 0.063 | 2.46 ± 0.073 |
| SQFINDHILFTKTFIFI [SRB8] | 1.56 ± 0.054 | 1.48 ± 0.056 | 1.47 ± 0.089 | 1.41 ± 0.033 |
| MDIAERIAVLHQKTKTL [YGL172W/NUP49] | 2.14 ± 0.076 | 1.67 ± 0.058 | 1.81 ± 0.11 | 1.51 ± 0.067 |
| FWSFLDSLIFKDSSLNY [YJL039C/NUP192] | 3.22 ± 0.076 | 2.74 ± 0.078 | 2.11 ± 0.15 | 2.46 ± 0.079 |
| HINKIPSNSTTTLHGPG [SRB8] | 2.89 ± 0.059 | 3.17 ± 0.059 | 2.96 ± 0.052 | 3.11 ± 0.039 |
| PGNGKHASENISLSFSR [SIR4] | 2.49 ± 0.081 | 2.88 ± 0.062 | 2.97 ± 0.061 | 3.05 ± 0.058 |
| YRCFAQLELRQLNASIS [RRI2] | 3.06 ± 0.2 | 3.24 ± 0.2 | 3.12 ± 0.16 | 3.39 ± 0.17 |
| YRRALQSSESFDDSDIT [YML103C/NUP188] | 1.89 ± 0.056 | 2.36 ± 0.059 | 2.16 ± 0.058 | 2.46 ± 0.047 |
| KVSAREKSAYKFFHNGM [FAS2] | 3.5 ± 0.14 | 3.39 ± 0.14 | 3.35 ± 0.099 | 3.54 ± 0.13 |
| ATSVESVDIGVETILSG [FAS2] | 2.93 ± 0.084 | 2.9 ± 0.089 | 2.13 ± 0.089 | 3.1 ± 0.069 |
| NPDDLMKAVRKVAEVKK [RPT4] | – | 3.4 ± 0.25 | – | – |
| DYKGAKLNVVGWFHSHP [RRI1] | 2.81 ± 0.097 | 2.49 ± 0.1 | 2.38 ± 0.18 | 2.59 ± 0.061 |
| TSVENEGPVANLKDYEL [REC8] | 3.38 ± 0.11 | 3.41 ± 0.12 | 3.03 ± 0.13 | 3.16 ± 0.076 |

Reference: the supplement of paper PMC9732359
